Key:
[1] = Population pharmacokinetics, Phase 3 pooled analysis; assay type: in vivo, human
Excerpt: During each Phase 3 study, 4 blood samples for population pharmacokinetic evaluation were obtained. In the study of patients with CKD, 2 predose samples were obtained at weeks 8 and 16 and 2 postdose samples were obtained at least 2 days after dosing between weeks 8 and 10 and weeks 16 and 20. In the other 3 studies, 2 predose samples were obtained at weeks 8 and 24 and 2 postdose samples were obtained at least 2 days after dosing between weeks 8 and 10 and weeks 24 and 28. The blood collection and storage procedure were the same as described above.
Plasma samples were analyzed for albiglutide by using a validated enzyme-linked immunosorbent assay (ELISA) and were diluted 100-fold with sample buffer before analysis. Albiglutide was captured using a rabbit anti-human GLP-1 (7-36) amide and detected using a rabbit anti-HSA conjugated to biotin. ELISA experiments were performed using the Furoninc® 96 well plate (Nunc, cat. #437796) with the following steps. […] The microtiter plate was washed 5 times with […] wash buffer (10 mM Sodium Phosphate, 150 mM NaCl, 0.05% Tween 20, pH 7.5) using plate washer; 2) […] blocking buffer of SuperBlock in PBS (SuperBlock (Pierce, cat. #37515) in PBS, 5.0% Rabbit Plasma) was added to each well, sealed and incubated with constant shaking for approximately 1.5 hour (±30 minutes) at ambient room temperature and the microtiter plate washed; 3) 100 mL of either standards, quality controls (QCs) or samples were added per well, sealed, incubated and washed; 4) 100 mL of Detection Antibody solution of Biotin Labelled Rabbit polyclonal to Human Serum Albumin (NOVUS Biologicals, cat. # NB 100-1674) was added per well, sealed, incubated and washed; 5) 100 mL of Reporter Tag solution (Streptavidin-HRPO Conjugate, Caltag, cat. # SA1007) was added per well, sealed, incubated and washed; 6) 100 mL of Development Substrate Pico (SuperSignal ELISA, Pierce, cat. #37070) was added, incubated and the plate read using plate reader (Wallac 1420 Victor Multilabel Counter, Perkin Elmer Life Sciences, Boston, Mass.). […]

[2] = test system: patients with type 2 diabetes; conditions: head-to-head trial; cited from earlier work

Albiglutide: recombinant fusion protein of 2 copies of modified human GLP-1 (fragment 7-36(A8G)) genetically fused in series to recombinant human serum albumin
apparent clearance CL/F, typical value of the final population PK model ([1]; BW 90.7, eGFR 77.9, covariates body weight, eGFR, African heritage, insulin): 66.6 mL/h | decrease in clearance vs eGFR around 80 mL/min/1.73 m2 ([1]; patient with eGFR of 50 mL/min/1.73 m2): about 9% | decrease in clearance vs eGFR around 80 mL/min/1.73 m2 ([1]; typical patient with eGFR of 30 mL/min/1.73 m2): about 19% | nausea, percentage [2]: 10% | vomiting, percentage [2]: 5%
